# Test results from PMC7311171 (2020).
# B1: BBS7, in vitro translated, tagged with a 6xMyc epitope [not stated] / GST-SMO^H8 (GST fused to the first 19 amino acids of SMO^Ctail, aa 543–559) [mouse] (parent complex)
# chain 1: MDLILNRMDYLQVGVTSQKTMKLIPASRHRATQKVVIGDHDGVVMCFGMKKGEAAAVFKTLPGPKIARLELGGVINTPQEKIFIAAASEIRGFTKRGKQFLSFETNLTESIKAMHISGSDLFLSASYIYNHYCDCKDQHYYLSGDKINDVICLPVERLSRITPVLACQDRVLRVLQGSDVMYAVEVPGPPTVLALHNGNGGDSGEDLLFGTSDGKLALIQITTSKPVRKWEIQNEKKRGGILCIDSFDIVGDGVKDLLVGRDDGMVEVYSFDNANEPVLRFDQMLSESVTSIQGGCVGKDSYDEIVVSTYSGWVTGLTTEPIHKESGPGEELKINQEMQNKISSLRNELEHLQYKVLQERENYQQSSQSSKAKSAVPSFGINDKFTLNKDDASYSLILEVQTAIDNVLIQSDVPIDLLDVDKNSAVVSFSSCDSESNDNFLLATYRCQADTTRLELKIRSIEGQYGTLQAYVTPRIQPKTCQVRQYHIKPLSLHQRTHFIDHDRPMNTLTLTGQFSFAEVHSWVVFCLPEVPEKPPAGECVTFYFQNTFLDTQLESTYRKGEGVFKSDNISTISILKDVLSKEATKRKINLNISYEINEVSVKHTLKLIHPKLEYQLLLAKKVQLIDALKELQIHEGNTNFLIPEYHCILEEADHLQEEYKKQPAHLERLYG
# chain 2: KATLLIWRRTWCRLTGH
# Variants of: B1
# Experiment: GST capture assay (pull-down) of in vitro translated Myc-BBS7, quantified from anti-Myc blot; parent: 4.4; read off a plot
row,Variant,response
1,chain 2 KATLLIARRTWCRLTGH,~0.85 ‰
2,chain 2 KATLLIWARTWARLTGH,~0.9 ‰
3,chain 2 KATLLIWARTWCRLTGH,~1.3 ‰
4,chain 2 KATLLIWRRTWARLTGH,~4.9 ‰

# Further lines, results first:
row,response,Variant
1,~0.12 ‰,chain 2 KATLLIAARTAARLTGH
2,~0.28 ‰,chain 2 KATLLIARRTACRLTGH
3,~3.6 ‰,chain 2 KATLLIWRRTACRLTGH
